From patent publication US20070077617

Target: fusion protein PRV
Sequence (chain, as listed by the source): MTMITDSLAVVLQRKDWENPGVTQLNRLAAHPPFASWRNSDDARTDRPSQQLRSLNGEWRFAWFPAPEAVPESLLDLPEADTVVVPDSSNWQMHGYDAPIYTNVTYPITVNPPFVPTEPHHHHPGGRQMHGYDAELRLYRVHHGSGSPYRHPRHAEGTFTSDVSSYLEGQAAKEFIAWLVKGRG

B1: OmpT protease variant OmpT D97R (protein)
chain: STETLSFTPDNINADISLGTLSGKTKERVYLAEEGGRKVSQLDWKFNNAAIIKGAINWDLMPQISIGAAGWTTLGSRGGNMVDQDWMDSSNPGTWTRESRHPDTQLNYANEFDLNIKGWLLNEPNYRLGLMAGYQESRYSFTARGGSYIYSSEEGFRDDIGSFPNGERAIGYKQRFKMPYIGLTGSYRYEDFELGGTFKYSGWVESSDNDEHYDPGKRITYRSKVKDQNYYSVAVNAGYYVTPNAKVYVEGAWNRVTNKKGNTSLYDHNNNTSDYSKNGAGIENYNFITTAGLKYTF
B1 was tested, and the relative cleavage efficiency was “less than 3.0%”.
